Holding throughout (test): cell-based or functional assay
Experiment [1] concerns the target human natriuretic peptide receptor B (NPR-B) (human) (UniProt P20594).
For experiment [2], the target named is T1, purified insulin degrading enzyme (IDE) (UniProt P14735).
T1 sequence (looked up): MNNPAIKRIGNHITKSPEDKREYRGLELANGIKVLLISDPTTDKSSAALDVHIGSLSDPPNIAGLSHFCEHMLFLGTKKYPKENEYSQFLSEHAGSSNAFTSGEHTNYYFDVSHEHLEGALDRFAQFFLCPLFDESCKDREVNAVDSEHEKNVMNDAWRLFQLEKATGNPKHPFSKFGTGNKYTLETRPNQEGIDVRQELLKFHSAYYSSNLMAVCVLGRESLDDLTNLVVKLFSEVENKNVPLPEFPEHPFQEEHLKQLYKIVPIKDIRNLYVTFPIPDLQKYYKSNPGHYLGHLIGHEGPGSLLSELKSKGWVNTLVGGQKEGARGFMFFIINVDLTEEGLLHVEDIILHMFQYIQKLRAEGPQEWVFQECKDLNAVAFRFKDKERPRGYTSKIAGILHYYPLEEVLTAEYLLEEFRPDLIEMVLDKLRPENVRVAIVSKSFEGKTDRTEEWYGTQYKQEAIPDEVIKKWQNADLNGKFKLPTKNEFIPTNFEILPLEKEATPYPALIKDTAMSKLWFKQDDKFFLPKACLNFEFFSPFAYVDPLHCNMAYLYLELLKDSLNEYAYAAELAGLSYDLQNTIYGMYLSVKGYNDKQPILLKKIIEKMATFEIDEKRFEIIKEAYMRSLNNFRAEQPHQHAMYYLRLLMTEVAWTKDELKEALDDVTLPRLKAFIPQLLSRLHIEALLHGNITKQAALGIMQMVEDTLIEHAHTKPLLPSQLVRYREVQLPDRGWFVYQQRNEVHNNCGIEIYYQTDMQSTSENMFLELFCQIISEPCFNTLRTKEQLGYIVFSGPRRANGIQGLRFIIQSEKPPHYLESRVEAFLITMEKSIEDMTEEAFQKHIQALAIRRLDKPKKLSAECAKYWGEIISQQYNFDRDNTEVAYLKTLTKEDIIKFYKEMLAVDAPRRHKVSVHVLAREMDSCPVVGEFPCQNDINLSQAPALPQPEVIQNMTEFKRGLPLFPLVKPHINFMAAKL

Experiment [3] deals with purified neutral endopeptidase (NEP) (UniProt P08473).

These results are taken from US20120164142A1.

human natriuretic peptide receptor B (NPR-B) (human), sequence (P20594 23-1047): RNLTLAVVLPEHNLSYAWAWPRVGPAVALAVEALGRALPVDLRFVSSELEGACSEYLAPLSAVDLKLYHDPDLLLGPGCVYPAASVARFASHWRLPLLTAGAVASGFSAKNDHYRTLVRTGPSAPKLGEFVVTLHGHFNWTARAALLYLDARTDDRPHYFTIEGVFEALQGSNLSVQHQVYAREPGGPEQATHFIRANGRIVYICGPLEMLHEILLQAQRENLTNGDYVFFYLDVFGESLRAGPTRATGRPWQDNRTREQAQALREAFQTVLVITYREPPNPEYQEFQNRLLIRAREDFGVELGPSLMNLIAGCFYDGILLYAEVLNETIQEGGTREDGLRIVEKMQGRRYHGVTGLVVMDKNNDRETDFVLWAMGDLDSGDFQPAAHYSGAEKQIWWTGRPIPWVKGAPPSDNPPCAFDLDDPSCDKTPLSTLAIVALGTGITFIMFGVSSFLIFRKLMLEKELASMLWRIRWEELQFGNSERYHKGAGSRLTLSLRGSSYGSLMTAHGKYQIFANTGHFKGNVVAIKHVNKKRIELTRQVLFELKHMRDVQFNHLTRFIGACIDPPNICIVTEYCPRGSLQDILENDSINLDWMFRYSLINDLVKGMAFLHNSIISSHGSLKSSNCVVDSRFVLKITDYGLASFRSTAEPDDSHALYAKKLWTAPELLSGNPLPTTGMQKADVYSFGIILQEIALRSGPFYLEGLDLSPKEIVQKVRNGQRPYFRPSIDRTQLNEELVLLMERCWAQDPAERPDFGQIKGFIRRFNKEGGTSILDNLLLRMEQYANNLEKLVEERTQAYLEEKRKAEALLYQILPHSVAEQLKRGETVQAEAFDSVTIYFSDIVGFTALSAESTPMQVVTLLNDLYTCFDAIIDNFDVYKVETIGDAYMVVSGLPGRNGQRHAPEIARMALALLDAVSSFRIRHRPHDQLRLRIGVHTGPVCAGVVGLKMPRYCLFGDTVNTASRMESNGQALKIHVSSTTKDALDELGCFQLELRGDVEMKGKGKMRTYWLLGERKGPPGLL
purified neutral endopeptidase (NEP), sequence (P08473 52-750 limits assumed): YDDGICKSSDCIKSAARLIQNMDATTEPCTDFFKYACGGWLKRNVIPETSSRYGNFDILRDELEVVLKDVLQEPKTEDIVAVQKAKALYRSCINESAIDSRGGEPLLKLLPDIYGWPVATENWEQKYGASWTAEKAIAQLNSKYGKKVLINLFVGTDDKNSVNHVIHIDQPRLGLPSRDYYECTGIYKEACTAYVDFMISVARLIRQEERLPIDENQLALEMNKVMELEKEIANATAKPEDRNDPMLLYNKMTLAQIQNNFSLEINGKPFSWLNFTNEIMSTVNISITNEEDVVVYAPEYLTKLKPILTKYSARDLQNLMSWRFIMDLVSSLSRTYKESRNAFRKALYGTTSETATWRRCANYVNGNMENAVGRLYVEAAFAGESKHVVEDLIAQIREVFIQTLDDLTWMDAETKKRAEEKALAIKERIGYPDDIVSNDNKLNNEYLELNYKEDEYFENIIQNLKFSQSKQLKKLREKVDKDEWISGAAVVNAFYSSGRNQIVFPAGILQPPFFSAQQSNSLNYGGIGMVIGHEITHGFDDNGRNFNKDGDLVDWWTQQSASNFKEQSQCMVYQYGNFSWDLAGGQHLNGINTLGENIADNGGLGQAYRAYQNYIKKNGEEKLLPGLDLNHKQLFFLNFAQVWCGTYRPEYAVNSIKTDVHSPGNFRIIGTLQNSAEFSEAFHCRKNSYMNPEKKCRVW

For the molecule GLSKGCFGLKLDRIGSMSGLGC [human CNP22], in experiment [1], the % Efficacy worked out at 100%; the EC50 (nM), NPR-B whole cell cGMP assay stood at 14.7 nM; the EC50 Ratio versus CNP22 is 1; the EC50 on NPR-B (nM), whole cell cGMP assay turned out to be 4.87 nM. For the same molecule, in experiment [1], the Rescue Ratio Average came out at 1 and the Rescue Ratio versus CNP22 came to 1. In addition, in experiment [2], the reduction of ability to generate cGMP (NPRB cells) after 30 min with purified IDE is 64% and the reduction of ability to generate cGMP (NPRB cells) after 120 min with purified IDE was found to be 99%. For the same molecule, in experiment [3], the % of control after 240 min (intact peptide by RP-HPLC after incubation with NEP) came to 0%, the reduction of ability to generate cGMP (NPRB cells) after 30 min with purified NEP was 50% and the reduction of ability to generate cGMP (NPRB cells) after 120 min with purified NEP worked out at 87%.
